Test results reported in US20250270254A1, “PROBES AND KITS FOR THE EARLY DIAGNOSIS OF DIFUSE LARGE B-CELL LYMPHOMA” (BEIJING BOE TECHNOLOGY DEVELOPMENT CO., LTD., priority 2022, published 2025).
Where a SMILES comes first, the peptide text is derived from it.

B1: BtaP2 (peptide)
peptide: ICWRRF
notes: Designed synthetic polypeptide probe; spotted on a bare gold SPRi chip; also called Ile-Cys-Trp-Arg-Arg-Phe
B2: BtaP3 (peptide)
peptide: ICWRRGI
notes: Designed synthetic polypeptide probe; spotted on a bare gold SPRi chip; also called Ile-Cys-Trp-Arg-Arg-Gly-Ile
B3: BtaPL5 (peptide)
peptide: ICWRRRRRRRRRRRRRF
notes: Designed synthetic polypeptide probe; spotted on a bare gold SPRi chip; also called Ile-Cys-Trp-Arg13-Phe
B4: BtaE1 (peptide)
peptide: ICWRRRGGGF
notes: Designed synthetic polypeptide probe; spotted on a bare gold SPRi chip; also called Ile-Cys-Trp-Arg3Gly3-Phe
B5: BtaE2 (peptide)
peptide: ICWGGRRRGGGF
notes: Designed synthetic polypeptide probe; spotted on a bare gold SPRi chip; also called Ile-Cys-Trp-Gly2Arg3Gly3-Phe
B6: BtaP1 (peptide)
peptide: HCWRRF
notes: Designed synthetic polypeptide probe; spotted on a bare gold SPRi chip; also called His-Cys-Trp-Arg-Arg-Phe
B7: Bta3097 (peptide)
peptide: GCYRRF
notes: Synthetic polypeptide probe from the Mix-Split library; spotted on a bare gold SPRi chip; also called Gly-Cys-Tyr-Arg-Arg-Phe
B8: BtaPL1 (peptide)
peptide: ICWRRRRRF
notes: Designed synthetic polypeptide probe; spotted on a bare gold SPRi chip; also called Ile-Cys-Trp-Arg5-Phe
B9: BtaPL4 (peptide)
peptide: ICWRRRRRRRRRRRF
notes: Designed synthetic polypeptide probe; spotted on a bare gold SPRi chip; also called Ile-Cys-Trp-Arg11-Phe
B10: Bta1335 (peptide)
peptide: CCHRGF
notes: Synthetic polypeptide probe from the Mix-Split library; spotted on a bare gold SPRi chip; also called Cys-Cys-His-Arg-Gly-Phe
B11: Bta893 (peptide)
peptide: HCWRGF
notes: Synthetic polypeptide probe from the Mix-Split library; spotted on a bare gold SPRi chip; also called His-Cys-Trp-Arg-Gly-Phe
B12: BtaE3 (peptide)
peptide: ICWGRRRGGF
notes: Designed synthetic polypeptide probe; spotted on a bare gold SPRi chip; also called Ile-Cys-Trp-Gly-Arg3-Gly2-Phe
B13: BtaPL3 (peptide)
peptide: ICWRRRRRRRRRF
notes: Designed synthetic polypeptide probe; spotted on a bare gold SPRi chip; also called Ile-Cys-Trp-Arg9-Phe
B14: BtaPL2 (peptide)
peptide: ICWRRRRRRRF
notes: Designed synthetic polypeptide probe; spotted on a bare gold SPRi chip; also called Ile-Cys-Trp-Arg7-Phe

Target: CD138 (UniProt P18827 23-251)
Assay: SPR imaging (SPRi); probe spotted on bare gold chip, CD138 flowed at 50-800 nM
Details: not given

CD138, sequence (P18827 23-251): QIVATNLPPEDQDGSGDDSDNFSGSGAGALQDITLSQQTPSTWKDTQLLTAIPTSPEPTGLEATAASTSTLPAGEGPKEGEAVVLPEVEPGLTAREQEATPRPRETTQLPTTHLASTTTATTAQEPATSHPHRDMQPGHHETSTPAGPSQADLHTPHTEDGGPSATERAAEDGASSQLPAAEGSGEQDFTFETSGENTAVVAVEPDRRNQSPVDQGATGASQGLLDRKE

Kd [nM] | Molecule
1.02 | B1
0.977 | B2
85.7 | B3
0.702 | B4
0.309 | B5
1.15 | B6
5.26 | B7
0.856 | B8
9.21 | B9
2.57 | B10
1.29 | B11
0.121 | B12
6.56 | B13
0.731 | B14

System: diffuse large B-cell lymphoma cells
Assay: Analysis of probe specificity: probe-coupled magnetic bead capture from mixed cells, flow cytometry
Format: cell-based
Details: positive cells (diffuse large B-cell lymphoma cells) mixed with negative cells (HELA cells) 1:10; proportion of positive cells among captured cells by flow cytometry
Protocol: The diagnostic specificity of the small molecular probe was detected using flow cytometry and the specific steps were as follows: • 1) Preparation of gradient concentration of cell samples: positive cells (diffuse large B-cell lymphoma cells) were mixed with negative cells (HELA cells) at a ratio of 1:10 and repeatedly pipetted to mix well; • 2) Probe-bead coupling: the reaction was performed in PBS buffer, with a bead-coupling concentration of 1 mg/mL, and 1 mg of beads corresponded to 10 μg of the BtaE3 probe, with gentle shaking for 1 h at room temperature. This was followed by washing five times with PBS buffer containing 0.01% BSA, standing for 30 s each time, and finally resuspending in PBS buffer at a concentration of 15 mg/mL; • 3) Positive cell enrichment: cells were thoroughly mixed with the magnetic bead suspension, with shaking by hand for 30 min at 4° C. in an ice box, followed by washing three times with PBS (containing 0.1% BSA and 2 mM EDTA) buffer and resuspending in PBS; • 4) Specificity analysis: The captured cells were separated using a magnetic field, and the protein expression profile was quantified by flow cytometry to calculate the proportion of positive cells.

Molecule | specificity for detection [%]
CC[C@H](C)[C@H](N)C(=O)N[C@@H](CS)C(=O)N[C@@H](Cc1c[nH]c2ccccc12)C(=O)NCC(=O)N[C@@H](CCCNC(=N)N)C(=O)N[C@@H](CCCNC(=N)N)C(=O)N[C@@H](CCCNC(=N)N)C(=O)NCC(=O)NCC(=O)N[C@@H](Cc1ccccc1)C(=O)O [BtaE3, Ile-Cys-Trp-Gly-Arg3-Gly2-Phe] (H-ICWGRRRGGF-OH; N-terminus and C-terminus assumed) | > 90
